From article PMC8125234, “Cardiolipin Stabilizes and Increases Catalytic Efficiency of Carnitine Palmitoyltransferase II and Its Variants S113L, P50H, and Y479F” (International Journal of Molecular Sciences, 2021)

B1: CPT II variant P50H (Homo sapiens; P50H) (protein)
chain: SAGSGPGQYLQRSIVPTMHYQDSLHRLPIPKLEDTIRRYLSAQKPLLNDGQFRKTEQFCKSFENGIGKELHEQLVALDKQNKHTSYISGPWFDMYLSARDSVVLNFNPFMAFNPDPKSEYNDQLTRATNMTVSAIRFLKTLRAGLLEPEVFHLNPAKSDTITFKRLIRFVPSSLSWYGAYLVNAYPLDMSQYFRLFNSTRLPKPSRDELFTDDKARHLLVLRKGNFYIFDVLDQDGNIVSPSEIQAHLKYILSDSSPAPEFPLAYLTSENRDIWAELRQKLMSSGNEESLRKVDSAVFCLCLDDFPIKDLVHLSHNMLHGDGTNRWFDKSFNLIIAKDGSTAVHFEHSWGDGVAVLRFFNEVFKDSTQTPAVTPQSQPATTDSTVTVQKLNFELTDALKTGITAAKEKFDATMKTLTIDCVQFQRGGKEFLKKQKLSPDAVAQLAFQMAFLRQYGQTVATYESCSTAAFKHGRTETIRPASVYTKRCSEAFVREPSRHSAGELQQMMVECSKYHGQLTKEAAMGQGFDRHLFALRHLAAAKGIILPELYLDPAYGQINHNVLSTSTLSSPAVNLGGFAPVVSDGFGVGYAVHDNWIGCNVSSYPGRNAREFLQCVEKALEDMFDALEGKSIKS
notes: made in house; host or cells: Escherichia coli BL21Gold DE

Assays:
CPT II WT = system: CPT II WT; set-up: method as in PMID 26477380; details: cited from earlier work
CPT II S113L = system: CPT II S113L; set-up: method as in PMID 27123472; details: in vitro; cited from earlier work
[1] = Thermosensitivity of enzyme activity of recombinant CPT II enzymes (activity half-life after incubation); assay type: physicochemical; details: 30 °C; 1 mg/mL enzyme
Protocol: To evaluate the enzyme behavior under different temperature conditions that are relevant under physiological conditions, we chose 30 (cold), 37 (normal), 40 (moderate fever) and 42 °C (high fever) for the experiments. The enzyme variants were expressed recombinantly in E. coli, carried a N-terminal histidine-tag and were purified by standard chromatography in the presence of a detergent (for experimental details, see Section 4.1 and Section 4.2). The impact of temperature was investigated by incubating purified CPT II variants at appropriate temperatures and determining their enzymatic activity after defined incubation periods. The enzyme assay was based on an adaptation of Rufer et al. for the transfer reaction of the palmitic acid from palmitoyl-CoA to L-carnitine (see Section 4.3).
Before activity measurements, the storage buffer of the enzymes was replaced with assay buffer (50 mM KH2PO4, 120 mM KCl, 1 mM EDTA-Na4) using vivaspin turbo 4 tubes (Satorius Stedim biotech GmbH, Göttingen, Germany) at 4 °C. […] After that, the protein concentration was determined using bicinchoninic acid (BCA) protein assay kit (Thermo Fisher Scientific GmbH, Berlin, Germany). […] The reverse reaction of CPT II was detected with the enzyme activity assay. […] The released CoA was then detected by the reaction of the free thiol group with DTNB, forming 5-mercapto-(2-nitrobenzoic acid). […]

[2] = Onset of aggregation by scattered light back reflection during heating ramp; assay type: physicochemical; details: assay buffer; heating ramp 15 °C to 80 °C
Protocol: Supplementary materials can be found at https://www.mdpi.com/article/10.3390/ijms22094831/s1, Figure S1: Scattered light back reflection as measure for aggregation during the heating ramp from 15 °C to 80 °C of CPT II WT (black) and the variants P50H (red), S113L (blue) and Y479F (green) in assay buffer (magenta). The light scattering data were obtained simultaneously with nanoDSF data using the back reflection technology in a Prometheus NT.48 device. The unfolding of proteins leads to display of hydrophobic regions of the protein on the surface, which is followed by hydrophobic interaction of the protein molecules resulting in aggregation events. These aggregates are then detected via light scattering. […] The data allow the detection of onset of aggregation (Tagg) which differs clearly among the variants. The Tagg for WT is 38 °C, Y479F is 37 °C, S113L is 35 °C and P50H is 32 °C. […] Figure S2: The first derivatives of the transition curves of WT and the variants resulting from the ratio 350/330 nm were plotted against the temperature. The black, red, blue and green solid lines show the curves of WT and variants P50H, S113L and Y479F measured in assay buffer, respectively. The black, red, blue and green dashed lines show the maxima of the values of the first derivatives of the ratio 350 nm/330 nm of WT and variants P50H, S113L and Y479F, respectively. Figure S3: The effect of amino acid exchange in absence and presence of n-octyl-β-d-glucopyranoside (β-OG) on the stability of CPT II (1 mg/mL) assessed by nanoDSF. The TM of WT (37 °C) in buffer was used as reference value (ΔTM = 0 °C) to determine the ΔTM for the variants and the ΔTM for WT and variants in presence of β- OG. Error bars are SD derived from three independent experiments. Table S1. Comparison of the mean values of the half-lives (t1/2) of CPT II WT and the variants at 30 °C with the half-lives at 37, 40 or 42 °C. The differences of the half-lives for each CPT II enzyme between 37 and 40 or 42 °C as well as 40 and 42 °C are not significant. Number of experiments for each variant (n ≥ 3). Table S2. Comparison of the mean values of the half-lives (t1/2) between CPT II WT and the variants Y479F, S113L and P50H at 30, 37, 40 or 42 °C. n ≥ 3. Table S3. […] Comparison of the ∆TM-values of CPT II WT and the variants Y479F, S113L and P50H in buffer or in presence of 0.25 mM cardiolipin or 1% n-octyl-β-d-glucopyranoside (β-OG) assessed by nanoDSF (n ≥ 3). […] Comparison of the transition temperatures (TM) of WT and the variants Y479F, S113L and P50H in buffer with of 0.25 mM cardiolipin or 1% n-octyl-β-d-glucopyranoside (β-OG) assessed by nanoDSF (n ≥ 3). […]

[3] = nanoDSF thermostability of recombinant CPT II enzymes in assay buffer; assay type: physicochemical; details: assay buffer; 1 mg/mL protein; nanoDSF
Protocol: The protein stability was investigated applying nano differential scanning fluorimetry (nanoDSF) using a protein concentration of 1 mg/mL in assay buffer. […] The heating rate has been set to 1 °C per min. A heating ramp from 15 to 95 °C was determined. The nanoDSF data were obtained using a Prometheus NT.48 device. First derivatives were calculated using PR.ThermControl software (NanoTemper Technologies GmbH, Munich, Germany). Experiments were performed at least three times independently as double determination.

[4] = substrate: C[N+](C)(C)C[C@H](O)CC(=O)[O-]; assay: Determination of the kinetic parameters kcat and KM; assay type: biochemical, human; details: other: P50H, L-carnitine varied, absence of CL, 25 °C
Protocol: Before activity measurements, the storage buffer of the enzymes was replaced with assay buffer (50 mM KH2PO4, 120 mM KCl, 1 mM EDTA-Na4) using vivaspin turbo 4 tubes (Satorius Stedim biotech GmbH, Göttingen, Germany) at 4 °C. The pH of assay buffer was adjusted with KOH to 7.4. The storage buffer was diluted at least 1:500 in assay buffer. In addition, before each experimental set up, the protein samples were centrifuged at 16,000× g for 5 min at 4 °C to remove any micro-aggregates. After that, the protein concentration was determined using bicinchoninic acid (BCA) protein assay kit (Thermo Fisher Scientific GmbH, Berlin, Germany). The enzyme activity of recombinant CPT II was performed following Rufer et al. with modifications described elsewhere. […] After pre-conditioning the mixture to 25 °C for 2 min, the reaction was started by adding 15 nM of recombinant enzyme. The reverse reaction of CPT II was detected with the enzyme activity assay. CPT II catalyzed the transfer of fatty acid residue from Pal-CoA to L-carnitine with release of CoA and Pal-carnitine. The released CoA was then detected by the reaction of the free thiol group with DTNB, forming 5-mercapto-(2-nitrobenzoic acid). This compound has a molar extinction coefficient of 13,600 M^−1 cm^−1 at a wavelength of 410 nm, and its formation was followed spectroscopically. […] The slope of the progress curve was used to determine the reaction velocity.
It is assumed that the reaction catalyzed by CPT II represents a ping-pong mechanism or compulsory order ternary-complex mechanism.
The kinetic parameters were determined by evaluating the obtained v/S characteristic according to the Michaelis–Menten Equation (1). The […] kcat was calculated using Equation (2):(1) v=Vmax∗[S]/KM+[S] (2) kcat=Vmax/cenzyme

Molecule	Inhibition by malonyl-CoA (CPT II WT)	Inhibition by malonyl-CoA (CPT II S113L)	Time to complete loss of activity [1] [min]	Onset of aggregation (Tagg) [2] [°C]	TM in Buffer [3] [°C]	Km [4] [mM]	kcat [4] [s⁻¹]	kcat/Km [4] [M⁻¹ s⁻¹]
CC(C)(COP(=O)(O)OP(=O)(O)OC[C@H]1O[C@@H](n2cnc3c(N)ncnc32)[C@H](O)[C@@H]1OP(=O)(O)O)[C@@H](O)C(=O)NCCC(=O)NCCSC(=O)CC(=O)O [malonyl-CoA, Malonyl-CoA]	not inhibited	abnormal enzyme inhibition						
B1			≤ 25	32	26.2 ± 0.3	12.8 ± 2.7	138 ± 4.9	10800 ± 2600
